The values below come from IntAct's records for PubMed 25416956.

B1: Inactive peptidyl-prolyl cis-trans isomerase FKBP6 (Homo sapiens), O75344 (parent)
chain: MGGSALNQGVLEGDDAPGQSLYERLSQRMLDISGDRGVLKDVIREGAGDLVAPDASVLVKYSGYLEHMDRPFDSNYFRKTPRLMKLGEDITLWGMELGLLSMRRGELARFLFKPNYAYGTLGCPPLIPPNTTVLFEIELLDFLDCAESDKFCALSAEQQDQFPLQKVLKVAATEREFGNYLFRQNRFYDAKVRYKRALLLLRRRSAPPEEQHLVEAAKLPVLLNLSFTYLKLDRPTIALCYGEQALIIDQKNAKALFRCGQACLLLTEYQKARDFLVRAQKEQPFNHDINNELKKLASCYRDYVDKEKEMWHRMFAPCGDGSTAGES
partner: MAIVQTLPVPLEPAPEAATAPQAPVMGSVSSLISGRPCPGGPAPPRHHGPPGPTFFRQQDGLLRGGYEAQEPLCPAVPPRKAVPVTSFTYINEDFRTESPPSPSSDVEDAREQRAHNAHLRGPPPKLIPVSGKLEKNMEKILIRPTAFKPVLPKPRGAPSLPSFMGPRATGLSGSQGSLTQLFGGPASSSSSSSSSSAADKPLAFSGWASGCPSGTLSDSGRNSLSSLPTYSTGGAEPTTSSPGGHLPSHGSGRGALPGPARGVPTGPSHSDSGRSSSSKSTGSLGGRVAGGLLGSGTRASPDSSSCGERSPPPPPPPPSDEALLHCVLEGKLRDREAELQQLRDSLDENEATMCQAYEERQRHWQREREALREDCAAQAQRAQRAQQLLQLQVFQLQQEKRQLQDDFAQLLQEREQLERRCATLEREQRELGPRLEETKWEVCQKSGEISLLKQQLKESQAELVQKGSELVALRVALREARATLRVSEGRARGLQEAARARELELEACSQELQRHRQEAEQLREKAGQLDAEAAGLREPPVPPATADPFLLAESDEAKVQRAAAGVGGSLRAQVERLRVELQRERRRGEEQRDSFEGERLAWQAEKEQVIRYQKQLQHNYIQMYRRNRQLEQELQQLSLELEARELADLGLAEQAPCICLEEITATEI
B2: Chorion-specific transcription factor GCMb (Homo sapiens), O75603 (parent)
chain: MPAAAVQEAVGVCSYGMQLSWDINDPQMPQELALFDQFREWPDGYVRFIYSSDEKKAQRHLSGWAMRNTNNHNGHILKKSCLGVVVCTQACTLPDGSRLQLRPAICDKARLKQQKKACPNCHSALELIPCRGHSGYPVTNFWRLDGNAIFFQAKGVHDHPRPESKSETEARRSAIKRQMASFYQPQKKRIRESEAEENQDSSGHFSNIPPLENPEDFDIVTETSFPIPGQPCPSFPKSDVYKATCDLATFQGDKMPPFQKYSSPRIYLPRPPCSYELANPGYTNSSPYPTLYKDSTSIPNDTDWVHLNTLQCNVNSYSSYERSFDFTNKQHGWKPALGKPSLVERTNHGQFQAMATRPYYNPELPCRYLTTPPPGAPALQTVITTTTKVSYQAYQPPAMKYSDSVREVKSLSSCNYAPEDTGMSVYPEPWGPPVTVTRAASPSGPPPMKIAGDCRAIRPTVAIPHEPVSSRTDEAETWDVCLSGLGSAVSYSDRVGPFFTYNNEDF
partner: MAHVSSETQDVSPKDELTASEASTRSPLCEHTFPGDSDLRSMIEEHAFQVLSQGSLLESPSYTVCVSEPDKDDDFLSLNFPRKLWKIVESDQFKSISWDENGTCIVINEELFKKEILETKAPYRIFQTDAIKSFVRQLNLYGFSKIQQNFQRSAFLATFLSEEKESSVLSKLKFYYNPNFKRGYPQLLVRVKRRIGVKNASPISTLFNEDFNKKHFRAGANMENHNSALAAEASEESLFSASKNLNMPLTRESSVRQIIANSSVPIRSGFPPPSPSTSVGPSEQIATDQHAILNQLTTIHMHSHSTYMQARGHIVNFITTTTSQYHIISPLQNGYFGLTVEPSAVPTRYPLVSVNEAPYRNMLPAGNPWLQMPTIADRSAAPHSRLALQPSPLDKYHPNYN

Variants of B1 are the subject of the first test. The note with it: with lzts2_human LZTS2, Q9BRK4.
As for MGGSALNQGVLEGDDAPGQSLYERLSQRMLDISGDRGVLKDVIREGAGDLVAPDASVLVKYSGYLEHMDRPLDSNYFRKTPRLMKLGEDITLWGMELGLLSMRRGELARFLFKPNYAYGTLGCPPLIPPNTTVLFEIELLDFLDCAESDKFCALSAEQQDQFPLQKVLKVAATEREFGNYLFRQNRFYDAKVRYKRALLLLRRRSAPPEEQHLVEAAKLPVLLNLSFTYLKLDRPTIALCYGEQALIIDQKNAKALFRCGQACLLLTEYQKARDFLVRAQKEQPFNHDINNELKKLASCYRDYVDKEKEMWHRMFAPCGDGSTAGES [F72L], the “effect of a mutation on the interaction” value is recorded as “disrupting interaction”.

The variants in another test derive from B2. Conditions: with hsfy1_human HSFY1, Q96LI6.
On to MPAAAVQEAVGVCSYGMQLSWDINDPQMPQELALFDQFREWPDGYVLFIYSSDEKKAQRHLSGWAMRNTNNHNGHILKKSCLGVVVCTQACTLPDGSRLQLRPAICDKARLKQQKKACPNCHSALELIPCRGHSGYPVTNFWRLDGNAIFFQAKGVHDHPRPESKSETEARRSAIKRQMASFYQPQKKRIRESEAEENQDSSGHFSNIPPLENPEDFDIVTETSFPIPGQPCPSFPKSDVYKATCDLATFQGDKMPPFQKYSSPRIYLPRPPCSYELANPGYTNSSPYPTLYKDSTSIPNDTDWVHLNTLQCNVNSYSSYERSFDFTNKQHGWKPALGKPSLVERTNHGQFQAMATRPYYNPELPCRYLTTPPPGAPALQTVITTTTKVSYQAYQPPAMKYSDSVREVKSLSSCNYAPEDTGMSVYPEPWGPPVTVTRAASPSGPPPMKIAGDCRAIRPTVAIPHEPVSSRTDEAETWDVCLSGLGSAVSYSDRVGPFFTYNNEDF [R47L], for which the “effect of a mutation on the interaction” value is “disrupting interaction”.

The variants in a further test derive from B2. Conditions: with hsfy1_human HSFY1, Q96LI6. The source holds these as a separate data set.
Regarding MPAAAVQEAVGVCSYGMQLSWDINDPQMPQELALFDQFREWPDGYVRFIYSSDEKKAQRHLSSWAMRNTNNHNGHILKKSCLGVVVCTQACTLPDGSRLQLRPAICDKARLKQQKKACPNCHSALELIPCRGHSGYPVTNFWRLDGNAIFFQAKGVHDHPRPESKSETEARRSAIKRQMASFYQPQKKRIRESEAEENQDSSGHFSNIPPLENPEDFDIVTETSFPIPGQPCPSFPKSDVYKATCDLATFQGDKMPPFQKYSSPRIYLPRPPCSYELANPGYTNSSPYPTLYKDSTSIPNDTDWVHLNTLQCNVNSYSSYERSFDFTNKQHGWKPALGKPSLVERTNHGQFQAMATRPYYNPELPCRYLTTPPPGAPALQTVITTTTKVSYQAYQPPAMKYSDSVREVKSLSSCNYAPEDTGMSVYPEPWGPPVTVTRAASPSGPPPMKIAGDCRAIRPTVAIPHEPVSSRTDEAETWDVCLSGLGSAVSYSDRVGPFFTYNNEDF [G63S], the “effect of a mutation on the interaction” value is on record as “disrupting interaction”.
